Here are results for nine molecules from patent US20190315886A1 (JIANGSU HENGRUI MEDICINE, published 2019).

Experiment [1] has as its target T1, human thrombin with His tag (human, UniProt P00734 328-622). Nature of the experiment: binding ELISA.
For experiment [2], the target named is T2, human prothrombin with His tag (human, UniProt P00734 44-622).
T2 construct: also called h-prothrombin-his
Nature of the experiment: binding ELISA. On the technique in general: ELISA stands for enzyme-linked immunosorbent assay.

Experiment [3] addresses T3, mouse thrombin with His tag (mouse, UniProt P19221 325-618, limits assumed).
T3 construct: also called m-thrombin-His; murine thrombin
Description: binding ELISA.

The target of experiment [4] is T1, human thrombin with His tag. Description: BIAcore.
For experiment [5], the target named is T2, human prothrombin with His tag. Nature of the experiment: BIAcore.
The target of experiment [6] is T1, human thrombin with His tag. Nature of the experiment: binding ELISA, biotinylated His-tagged human thrombin on streptavidin plate. An excerpt: The binding ability of anti-thrombin antibody was detected by ELISA assay with the antibodies and the human thrombin with His tag. Thrombin protein with His tag labeled with the biotin-labeling kit (Dongren Chemicals, Cat No. LK03) was immobilized into a 96-well microtiter plate by binding to streptavidin coated on the microtiter plate, the strength of the signal after the addition of the antibody was used to determine the binding activity of the antibody to thrombin. The specific experimental method is as follows.
Streptavidin (Sigma, Cat No. S4762-5MG) was diluted to a concentration of 5 μg/ml with PBS buffer, pH 7.4 (Sigma, Cat No. P4417-100TAB) and added to a 96-well plate at a volume of 50 μl/well, and then, the plate was incubated in the incubator at 37° C. for 2 hours. After discarding the liquid, the plates were blocked with 200 μl/well of blocking solution containing 5% skim milk (Guangming skim milk) in PBS, and incubated in the incubator at 37° C. for 2.5 hours or overnight at 4° C. (16-18 hours). After blocking, the blocking solution was discarded and the plate was washed 5 times with PB ST buffer (PBS containing 0.05% tweeen-20, pH7.4). Human thrombin protein with His tag labeled with the biotin-labeling (SEQ ID NO: 2, as shown by the double underline) was diluted with sample dilution (PBS containing 1% BSA, PH7.4) to 50 μg/ml and was added to each well, 50 μl/well. Then the plate was incubated in the incubator at 37° C. for 2 h or overnight. After incubation, the blocking solution in the plate was discarded, and the plate was washed with PBST 6 times, and then 50 μl/well of various concentrations of the test antibodies diluted with sample dilution was added to each well, and the plate was incubated at 37° C. for 2 h. The plates were washed 5 times with PBST after incubation, and 100 μl/well of goat anti-human secondary antibody (Jackson Immuno Research, Cat No. 109-035-003) labeled with HRP was added to each well, diluted in sample dilution, and the plate was incubated at 37° C. for 1 h. After washing the plates 5 times with PBST, 50 μl/well of TMB chromogenic substrate (KPL, Cat No. 52-00-03) was added to each well, and incubated at room temperature for 10-15 min. The reaction was stopped by the addition of 50 μl/well 1M H₂SO₄ to each well.

For experiment [7] the target is unchanged. Description: Biacore; reference h1601-008. (In general: SPR reads the build-up and loss of mass on a sensor chip optically.)
Experiment [8] addresses T2, human prothrombin with His tag. Nature of the experiment: Biacore; reference h1601-008.
In experiment [9] the target is T1, human thrombin with His tag. Nature of the experiment: Biacore.
Experiment [10] has as its target T2, human prothrombin with His tag. Description: Biacore.
For experiment [11], the target named is T1, human thrombin with His tag. Description: Biacore; ratio of KD on pro-thrombin to KD on thrombin.
The target is the same in experiment [12]. Nature of the experiment: biacore; selectivity thrombin over pro-thrombin, reference h1601-008.
For experiment [13] the target is unchanged. Description: BIAcore, antibody captured by anti-human antibody.
For experiment [14], the target named is T2, human prothrombin with His tag. Description: BIAcore, antibody captured by anti-human antibody.

B1: chimeric antibody CH-1601 (antibody, human IgG4 S228P, kappa, V domains shown)
VH: EVKLVESEGGLVQPGSSLKLSCTASGFTFSDYYMAWVRQVPEKGLEWVANINSDGSSTYYLDSLKSRFIISRDNAKNILYLQMSSLKSEDTATYYCARDHYHGNSYVFDYWGQGTTLTVSS
VL: DIQMTQSSSSFSVSRGNRVTITCKASEDIYNRLAWYQQKPGNAPRLIISGATSLETGVPSRFSGSGSGKDYTLSITSLQTEDVGTYYCQQYWSTPWTFGGGTKLEIKR
Consider B1, for which the EC50 was 0.71 nM in experiment [1] and 42.6 nM in [2]. The binding result in experiment [3] is “no binding”. Also, the Kd in experiment [4] turned out to be 2.27 nM; in experiment [5], 78.7 nM.

B2: humanized antibody h1601-005 (antibody, human IgG4 S228P, kappa, V domains shown)
VH: EVQLVESGGGLVQPGGSLRLSCAASGFTFSDYYMAWVRQAPGKGLEWVSNINSDGSSTYYLDSLKSRFTISRDNSKNTLYLQMNSLKAEDTAVYYCARDHYHGNSYVFDYWGQGTTVTVSS
VL: DIQMTQSPSSLSASVGDRVTITCKASEDIYNRLAWYQQKPGKAPKLLISGATSLETGVPSRFSGSGSGKDFTLTISSLQPEDFATYYCQQYWSTPWTFGGGTKVEIKR
In the case of B2, in [6], the EC50 is 5.8 nM.

B3: aTM-2 (antibody, V domains shown)
VH: EVQLVESGGGLVQPGGSLRLSCAASGFTFSDYYMAWVRQAPGKGLEWVSNINSDGSSTYYLDSLKSRFTISRDNSKNTLYLQMNSLKAEDTAVYYCARDHYLGNSYVFDSWGQGTTVTVSS
VL: DIQMTQSPSSLSASVGDRVTITCKASEDIYNRLAWYQQKPGKAPRLIISGATSLETGVPSRFSGSGSGKDYTLTISSLQPEDFATYYCQQYWSTPWTFGGGTKVEIK
For the molecule B3, the “Fold of Affinity relative to h1601-008” value in experiment [7] came to 86.5 fold; in [8], 62.4 fold. Further, the values for the Kd in [9] and in experiment [10] were 0.0899 nM and 1.23 nM, respectively. For the same molecule, the Selective activity in experiment [11] turned out to be 13.7.

B4: aTM-4 (antibody, V domains shown)
VH: EVQLVESGGGLVQPGGSLRLSCAASGFTFSDYYMAWVRQAPGKGLEWVSNINSDGSSTYYLDSLKSRFTISRDNSKNTLYLQMNSLKAEDTAVYYCARDHYLGNSYVFDLWGQGTTVTVSS
VL: DIQMTQSPSSLSASVGDRVTITCKASEDIYNRLAWYQQKPGKAPRLIISGATSLETGVPSRFSGSGSGKDYTLTISSLQPEDFATYYCQQYWSTPWTFGGGTKVEIK
Consider B4, for which the results for the “Fold of Affinity relative to h1601-008” value in experiment [7] and in experiment [8] were 54 fold and 29.3 fold, respectively. The equilibrium dissociation constant (Kd) was 0.144 nM in experiment [9] and 2.62 nM in experiment [10]. Moreover, the Selective activity in experiment [11] was determined as 18.2.

B5: aTM-1 (antibody, V domains shown)
VH: EVQLVESGGGLVQPGGSLRLSCAASGFTFSDYYMAWVRQAPGKGLEWVSNINSDGSSTYYLDSLKSRFTISRDNSKNTLYLQMNSLKAEDTAVYYCARDHYIGASYVFDYWGQGTTVTVSS
VL: DIQMTQSPSSLSASVGDRVTITCKASEDIYNRLAWYQQKPGKAPRLIISGATSLETGVPSRFSGSGSGKDYTLTISSLQPEDFATYYCQQYWSTPWTFGGGTKVEIK
Regarding B5, the “Fold of Affinity relative to h1601-008” value was found to be 40.7 fold in [7] and 22.1 fold in experiment [8]. Also, the Kd worked out at 0.191 nM in experiment [9] and 3.48 nM in experiment [10]. The Selective activity in [11] was 18.2. Further, the “fold increase of selectivity (against h1601-008)” value in experiment [12] was 1.8 times.

B6: humanized antibody h1601-009 (antibody, human IgG4 S228P, kappa, V domains shown)
VH: EVKLVESGGGLVQPGGSLRLSCAASGFTFSDYYMAWVRQAPGKGLEWVANINSDGSSTYYLDSLKSRFTISRDNSKNTLYLQMNSLKAEDTAVYYCARDHYHGNSYVFDYWGQGTTVTVSS
VL: DIQMTQSPSSLSASVGDRVTITCKASEDIYNRLAWYQQKPGKAPRLIISGATSLETGVPSRFSGSGSGKDYTLTISSLQPEDFATYYCQQYWSTPWTFGGGTKVEIKR
In experiment [13], B6 showed a Kd of 8.17 nM. Moreover, in experiment [6], the EC50 worked out at 1.49 nM.

B7: humanized antibody h1601-006 (antibody, human IgG4 S228P, kappa, V domains shown)
VH: EVKLVESGGGLVQPGGSLRLSCAASGFTFSDYYMAWVRQAPGKGLEWVANINSDGSSTYYLDSLKSRFTISRDNSKNTLYLQMNSLKAEDTAVYYCARDHYHGNSYVFDYWGQGTTVTVSS
VL: DIQMTQSPSSLSASVGDRVTITCKASEDIYNRLAWYQQKPGKAPKLLISGATSLETGVPSRFSGSGSGKDFTLTISSLQPEDFATYYCQQYWSTPWTFGGGTKVEIKR
Regarding B7, a half-maximal effect in experiment [6] (EC50) was put at 4.45 nM.

B8: aTM-7 (antibody, V domains shown)
VH: EVQLVESGGGLVQPGGSLRLSCAASGFTFSDYYMAWVRQAPGKGLEWVSNINSDGSSTYYLDSLKSRFTISRDNSKNTLYLQMNSLKAEDTAVYYCARDHYMGNSYVFDTWGQGTTVTVSS
VL: DIQMTQSPSSLSASVGDRVTITCKASEDIYNRLAWYQQKPGKAPRLIISGATSLETGVPSRFSGSGSGKDYTLTISSLQPEDFATYYCQQYWSTPWTFGGGTKVEIK
Take B8: the “Fold of Affinity relative to h1601-008” value stood at 45.2 fold in [7] and 37.5 fold in [8]. The Kd in [9] amounted to 0.172 nM; in experiment [10] it was 2.05 nM. Further, the Selective activity in experiment [11] amounted to 11.9.

B9: humanized antibody h1601-008 (antibody, human IgG4 S228P, kappa, V domains shown)
VH: EVQLVESGGGLVQPGGSLRLSCAASGFTFSDYYMAWVRQAPGKGLEWVSNINSDGSSTYYLDSLKSRFTISRDNSKNTLYLQMNSLKAEDTAVYYCARDHYHGNSYVFDYWGQGTTVTVSS
VL: DIQMTQSPSSLSASVGDRVTITCKASEDIYNRLAWYQQKPGKAPRLIISGATSLETGVPSRFSGSGSGKDYTLTISSLQPEDFATYYCQQYWSTPWTFGGGTKVEIKR
In the case of B9, the “Fold of Affinity relative to h1601-008” value in experiment [7] and in experiment [8] was 1 fold throughout. The Kd was determined as 7.78 nM in [9], 76.8 nM in [10], 8.97 nM in experiment [13] and 94.3 nM in experiment [14]. The Selective activity in experiment [11] was found to be 9.9. Besides, a half-maximal effect in experiment [6] (EC50) was put at 1.54 nM.

Broadly, the EC50 is the concentration giving half of the maximal effect. Low readings indicate an effect from little substance, high ones a need for much substance. One may read the Kd as a measure of binding affinity in units of concentration. High values mean lower affinity, low ones higher affinity.
